± gives the uncertainty stated by the source.
Experiment: protein stability index of a GFP-peptide fusion (yeast GPS) (PSI 1-4); higher = more stable; sorted into four equal gates, so the index is relative within each strain
In short: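 Sequencing reads from sorted gates were used to score each peptide. The library consisted of tiled 17-residue yeast protein peptides fused downstream of GFP on a Cherry-expressing plasmid, pooled and carried in yeast. Mid-log cultures in leucine-free medium were split into four equal gates by GFP/Cherry ratio, and each gate's plasmids were PCR-amplified and Illumina-sequenced. The protein stability index adds up, over all gates, the read frequency multiplied by the gate number.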

Sequence | protein stability index (doa10∆) | protein stability index (pdr5∆) | protein stability index (san1∆) | protein stability index (ubr1∆)
RLILLLNHRNKNQHRAA [RMP1] | 1.44 ± 0.09 | 1.51 ± 0.079 | 1.34 ± 0.12 | 2.13 ± 0.089
RLISSKMPGGFTITVAR [FAS2] | 1.65 ± 0.038 | 2 ± 0.063 | 1.52 ± 0.073 | 1.92 ± 0.044
RLLPNGSNKAQISIIDI [YML031W/NDC1] | 2.91 ± 0.076 | 3.11 ± 0.067 | 2.6 ± 0.048 | 2.92 ± 0.035
RLRQGAAKLRTLDYAER [RPL2A] | 1.61 ± 0.071 | 1.51 ± 0.049 | 1.56 ± 0.12 | 1.56 ± 0.048
RLYLKDQTNHIESDSIL [ECM29] | 2.8 ± 0.062 | 2.76 ± 0.06 | 2.96 ± 0.048 | 2.62 ± 0.035
RMYEEASGKEVEKVATA [RPN2] | 2.67 ± 0.25 |  |  | 
RNSPFWWTNSHHDGKLW [PRP8] | 2.55 ± 0.069 | 2.85 ± 0.06 | 2.68 ± 0.041 | 2.78 ± 0.049
RNSWNFALIDYFYDLDV [BRN1] | 2.18 ± 0.057 | 1.87 ± 0.05 | 1.33 ± 0.093 | 2.06 ± 0.044
RPTEKPVGRELDPISLI [RPN13] | 2.95 ± 0.11 | 3.4 ± 0.12 | 3.33 ± 0.08 | 3.19 ± 0.094
RQKNVIHRAARPTRPDK [RPL15A] | 3.31 ± 0.17 | 3.69 ± 0.16 | 3.27 ± 0.066 | 3.24 ± 0.2
RQMNLVITLLNNSSITL [YCS4] | 1.37 ± 0.05 | 1.18 ± 0.039 | 1.19 ± 0.08 | 1.35 ± 0.035
RQPANTKIGAKRIHSVR [RPS8A] | 3.08 ± 0.076 | 3.26 ± 0.075 | 2.74 ± 0.07 | 3.04 ± 0.076
RQSSVGSLNATNFSPTP [SNF2] | 2.75 ± 0.049 | 2.98 ± 0.048 | 2.54 ± 0.044 | 2.96 ± 0.051
RQTGPAKINEVYNNSKD [NSL1] | 3.06 ± 0.087 | 3.06 ± 0.083 | 2.93 ± 0.073 | 2.9 ± 0.062
RRERRLIFGTIASKMSL [RPT3] | 2.31 ± 0.051 | 2.48 ± 0.068 | 2.36 ± 0.048 | 2.45 ± 0.038
RRIKEAEENLKKRIRLP [YIL149C/MLP2] | 2.26 ± 0.08 | 2.23 ± 0.067 | 1.88 ± 0.12 | 2.02 ± 0.07
RRRTYRAHGRINKYESS [RPL17A] | 1.87 ± 0.2 | 2.37 ± 0.094 | 1.9 ± 0.13 | 2.05 ± 0.065
RSCVSNSNENGTLERIK [RPN4] | 2.98 ± 0.07 | 3.07 ± 0.077 | 2.54 ± 0.065 | 2.95 ± 0.057
RSDGMGNVLLNATVVDS [YLR335W/NUP2] | 3.44 ± 0.15 | 3.15 ± 0.099 | 3.29 ± 0.099 | 3.15 ± 0.093
RSEEEVTKLNVLVDEIK [YIL149C/MLP2] | 3.42 ± 0.15 | 3.5 ± 0.11 | 3.24 ± 0.059 | 3.36 ± 0.082
RSILQSLNPALQEKIST [SWI1] | 2.45 ± 0.056 | 2.79 ± 0.069 | 2.72 ± 0.1 | 2.71 ± 0.073
RSISKELIVSEEIPINS [SIR3] | 2.07 ± 0.051 | 2.09 ± 0.051 | 2.07 ± 0.07 | 1.99 ± 0.036
RSISWAPSIGRWYQLIA [YGL100W/SEH1] | 1.26 ± 0.072 | 1.15 ± 0.075 | 1.16 ± 0.12 | 1.11 ± 0.063
RSKSSHKNERRVLEIQT [SKI6] | 3.22 ± 0.097 | 3.35 ± 0.087 | 3.23 ± 0.084 | 3.37 ± 0.061
RSLLLSRVRADDLSTRF [RRP43] | 2.89 ± 0.21 | 3.63 ± 0.17 |  | 2.92 ± 0.16
RSLRATAEERVGRRAAN [RPL15A] | 3.56 ± 0.24 | 3.52 ± 0.19 | 3.03 ± 0.2 | 2.95 ± 0.1
RSLVREIAGLSPYERRL [RPL36A] | 2.86 ± 0.13 | 3.5 ± 0.2 | 2.78 ± 0.12 | 2.82 ± 0.11

Sequence | protein stability index (doa10∆) | protein stability index (pdr5∆) | protein stability index (san1∆) | protein stability index (ubr1∆)
RSNDPQSSLSKVDIPLE [NUT2] | 3.02 ± 0.098 | 3.23 ± 0.094 | 3.27 ± 0.056 | 2.93 ± 0.15
RSPTRRLELLQLSPVKN [SMC4] | 1.38 ± 0.26 | 1.64 ± 0.19 |  | 1.68 ± 0.13
RSQDVRSTDRDRVKVIE [CSL4] | 3.01 ± 0.16 |  | 3.27 ± 0.12 | 2.97 ± 0.079
RTAPKSDNVYLKLLVKL [RPL18A] | 2.6 ± 0.092 | 2.8 ± 0.093 | 2.7 ± 0.089 | 3.03 ± 0.068
RTHFKRMRFPPFDDDEP [PRP8] | 2.65 ± 0.042 | 3.03 ± 0.047 | 2.91 ± 0.044 | 2.77 ± 0.035
RTIGIAVDHRRQNRNQE [RPL13A] | 2.65 ± 0.18 | 2.7 ± 0.13 | 3.14 ± 0.16 | 2.86 ± 0.22
RTKFVRSLVREIAGLSP [RPL36A] | 2.59 ± 0.19 | 2.71 ± 0.19 | 2.85 ± 0.086 | 2.92 ± 0.09
RTLNIQPEVAVKAAINF [YIL149C/MLP2] | 2.19 ± 0.054 | 2.15 ± 0.045 | 1.84 ± 0.071 | 2.21 ± 0.046
RTPHEIQEANSVDMSAL [RIP1] |  | 3.46 ± 0.21 |  | 3.24 ± 0.076
RTQFGGGKSVGFGLVYN [RPS24A] | 2.96 ± 0.065 | 2.82 ± 0.05 | 3.27 ± 0.047 | 2.91 ± 0.055
RVAKGSGTSVFEVEMIL [SRP54] | 3.28 ± 0.071 | 3.26 ± 0.099 | 3.39 ± 0.076 | 3.42 ± 0.12
RVEKIPEIPLVVSTDLE [RPL4A] |  | 2.93 ± 0.3 |  | 2.77 ± 0.22
RVIIQELRFPSPTPIQR [PRP28] | 2.57 ± 0.15 | 2.58 ± 0.15 | 2.41 ± 0.14 | 
RVLETTLVEFETIKMKE [BRN1] | 2.12 ± 0.22 | 3.23 ± 0.14 |  | 1.34 ± 0.086
RVSHSDTNSSKPKNTKE [SIR4] |  | 3.08 ± 0.26 |  | 
RVVMMKYDRKVPSPTGE [RPO21] | 2.69 ± 0.11 | 3.11 ± 0.069 | 2.69 ± 0.079 | 2.89 ± 0.043
RVVVPQALRVLRLKPGR [RPL16B] | 1.24 ± 0.087 | 1.58 ± 0.06 | 1.36 ± 0.12 | 1.77 ± 0.1
RWDKEEYQSLMSLKDKL [SMC1] | 3.29 ± 0.076 | 3.31 ± 0.08 | 3.2 ± 0.11 | 3.09 ± 0.053
RWYQLIATGCKDGRIRI [YGL100W/SEH1] | 2.31 ± 0.065 | 2.26 ± 0.057 | 2.18 ± 0.078 | 2.43 ± 0.044
RYFFYLSKINAIQLDYS [RPN3] | 1.31 ± 0.057 | 1.23 ± 0.058 | 1.34 ± 0.15 | 1.33 ± 0.044
SAEYLQMSLEANVVDIT [YJR042W/NUP85] | 1.8 ± 0.064 | 2.19 ± 0.065 | 2.05 ± 0.14 | 2.38 ± 0.058
SAGDDGKVRLWKATYSN [YGL100W/SEH1] | 2.74 ± 0.061 | 2.89 ± 0.089 | 2.74 ± 0.06 | 3 ± 0.058
SAGKGISSSAIPYSRNA [RPS13] | 2.61 ± 0.037 | 2.58 ± 0.041 | 2.36 ± 0.048 | 2.21 ± 0.029
SAGQPNLLLSASRDKTL [ASC1] | 2.4 ± 0.063 | 2.77 ± 0.05 | 2.7 ± 0.041 | 1.91 ± 0.049
SAIVNEDGLLEGLDELP [SOH1] | 2.95 ± 0.14 | 3.24 ± 0.082 | 2.78 ± 0.15 | 2.8 ± 0.12
SAKAELEKLVDHHPEGL [PRE10] | 2.84 ± 0.065 | 2.91 ± 0.055 | 2.55 ± 0.068 | 2.75 ± 0.048

Reference: the supplement of paper PMC9732359
